The source of these data is PMC11502334, “Fungal glyceraldehyde 3-phosphate dehydrogenase GpdC maintains glycolytic mechanism against reactive nitrogen stress-induced damage” (Frontiers in Microbiology, 2024).

Holding throughout (experiment): purified protein
Assay type in all cases: biochemical, Aspergillus nidulans

Substrate in data set [1]: NC(=O)c1ccc[n+]([C@@H]2O[C@H](COP(=O)(O)OP(=O)(O)OC[C@H]3O[C@@H](n4cnc5c(N)ncnc54)[C@H](O)[C@@H]3O)[C@@H](O)[C@H]2O)c1
Conditions: GAP as co-substrate, 30 mM sodium pyrophosphate, 10 mM potassium phosphate, pH 8.4, 25°C, varied: cofactor.

Substrate in data set [2]: NC(=O)c1ccc[n+]([C@@H]2O[C@H](COP(=O)(O)OP(=O)(O)OC[C@H]3O[C@@H](n4cnc5c(N)ncnc54)[C@H](OP(=O)(O)O)[C@@H]3O)[C@@H](O)[C@H]2O)c1
Conditions: GAP as co-substrate, 30 mM sodium pyrophosphate, 10 mM potassium phosphate, pH 8.4, 25°C, varied: cofactor.

Substrate in data set [3]: O=C[C@H](O)COP(=O)(O)O
Conditions: 30 mM sodium pyrophosphate, 10 mM potassium phosphate, pH 8.4, 25°C.

The mark [4] stands for this setting: co-substrate (NAD+ or NADP+) not given.

B1: rGpdC (GpdC) (Aspergillus nidulans FGSC A4) (protein)
chain: MAPSINEIPISDSPSACRVGINGFGRIGRNVLRVALARNDIQIVAINHTCTSVQDLIYLIRYDSSMGKLSPDIPIHAISETQISVNGRPIALTSERDLKKLNWAALGAEYVVECTGKFTKRELAQDHITYGGAKRVVISAPSSDSPTYVYGVNADEYRANEETRVISCASCTTNCVTPVLKVLQREFGIAQGFLTTVHAATKSQTVLDGYSKKNRRLGRSVFDNIIPTTTGAAKAIASVLPELTGKVTGASIRVPTPNVSLIDLTVSTETPTSLAEILAAFRRAAKNELAGVLSVSDEVLVSSDYLGDSHSAIVDAAACSELNPTFFKIMAWYDNEWGYSSRLLDLTRHIAHNE
notes: recombinant from synthetic E. coli codon-optimized gene, vector pET-21a (Nde I/Hind III), expressed in E. coli BL21 (DE3), HisTrap purified
As to B1, the Km (commonly the substrate concentration at which the rate is half of its maximum) in data set [1] came out at 420 ± 20 µM; in data set [2], 47 ± 2 µM; in data set [3] (setting [4]), 290 ± 20 µM. In addition, the values for the catalytic constant (kcat) in data set [1], in data set [2] and in data set [3] (setting [4]) were 4 ± 0.333 s⁻¹, 8.83 ± 0.5 s⁻¹ and 2.67 ± 0.333 s⁻¹, respectively. Further, the values for the kcat/Km in data set [1], in data set [2] and in data set [3] (setting [4]) were 9330 ± 333 M⁻¹ s⁻¹, 183000 ± 16700 M⁻¹ s⁻¹ and 9170 ± 333 M⁻¹ s⁻¹, respectively.

B2: rGpdA (GpdA) (Aspergillus nidulans FGSC A4) (protein)
chain: MAPKVGINGFGRIGRIVFRNAIEAGTVDVVAVNDPFIETHYAAYMLKYDSQHGQFKGTIETYDEGLIVNGKKIRFHTERDPANIPWGQDGAEYIVESTGVFTTQEKASAHLKGGAKKVVISAPSADAPMFVMGVNNETYKKDIQVLSNASCTTNCLAPLAKVINDNFGIIEGLMTTVHSYTATQKVVDGPSAKDWRGGRTAATNIIPSSTGAAKAVGKVIPSLNGKLTGMAMRVPTSNVSVVDLTVRTEKAVTYDQIKDAVKKASENELKGILGYTEDDIVSTDLNGDTRSSIFDAKAGIALNSNFIKLVSWYDNEWGYSRRVVDLITYISKVDAQ
notes: recombinant from cDNA, vector pET-21a, expressed in E. coli BL21 (DE3), HisTrap purified
As to B2, in data set [1], the Km was determined as 180 ± 30 µM, the kcat (usually the maximal rate divided by the concentration of active sites) was determined as 85 ± 3.33 s⁻¹ and the kcat/Km (usually the turnover number divided by the Michaelis constant) was determined as 467000 ± 117000 M⁻¹ s⁻¹. For the same protein, in data set [3] (NAD+ as co-substrate), the Km came out at 410 ± 90 µM, the kcat came to 55 ± 3.33 s⁻¹ and the kcat/Km was found to be 132000 ± 40000 M⁻¹ s⁻¹.
